From article doi:10.1101/2021.04.23.441069

Legend:
[1] = biological target: NyxB (untagged, His tag cleaved with TEV) (Brucella abortus 2308) (UniProt Q2YPZ9); test: […]
[2] = biological target: NyxA (purified, not held on the resin) (Brucella abortus 2308) (UniProt Q2YPD9); test: […]

Substance	stoichiometry N [1]	stoichiometry N [2]
NyxB (untagged, His tag cleaved with TEV) (from UniProt Q2YPZ9 1-134) (natural protein)	2	
NyxA (purified, not held on the resin) (from UniProt Q2YPD9 1-129) (natural protein)		2
